{"source": "paper PMC3145769", "about": "“Cyclin A2 Mutagenesis Analysis: A New Insight into CDK Activation and Cellular Localization Requirements” (PLoS ONE, 2011)", "test_in_all_cases": "co-IP; anti-Flag M2 affinity gel on extracts of NIH3T3 cells transfected with 3xFlag Cyclin A2 alleles; endogenous partners detected by Western blot; densitometry (ImageQuantTL) normalised to immunoprecipitated Cyclin A2, percent of WT; repeated 5 times", "details_in_all_cases": "partners not purified", "key": {"[1]": {"biological_target": "T1, Cyclin A2 E285A, C-terminally fused to 3 Flag tags (mouse, UniProt P51943 1-422, E285A)", "T1 construct": "Cyclin A2, mouse; cDNA obtained from NIH3T3 cells by RT-PCR; source: NIH3T3 cells, transfected, in cell extracts; not shown: 3xFlag, C-terminal, kept", "T1 sequence (P51943 whole entry E285A, the tested form may be a part)": "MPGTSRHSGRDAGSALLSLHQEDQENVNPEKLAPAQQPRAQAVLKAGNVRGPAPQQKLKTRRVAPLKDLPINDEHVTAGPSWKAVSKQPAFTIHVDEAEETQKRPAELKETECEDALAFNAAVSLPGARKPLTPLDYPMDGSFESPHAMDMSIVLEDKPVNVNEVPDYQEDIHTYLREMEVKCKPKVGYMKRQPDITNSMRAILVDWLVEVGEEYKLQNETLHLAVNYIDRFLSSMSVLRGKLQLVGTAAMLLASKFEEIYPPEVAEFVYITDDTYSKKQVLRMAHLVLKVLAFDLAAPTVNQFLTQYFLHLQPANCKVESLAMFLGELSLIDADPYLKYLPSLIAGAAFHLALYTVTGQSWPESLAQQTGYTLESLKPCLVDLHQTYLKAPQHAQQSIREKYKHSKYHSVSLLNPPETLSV"}, "[2]": {"biological_target": "T2, Cyclin A2 L204A, C-terminally fused to 3 Flag tags (mouse, UniProt P51943 1-422, L204A)", "T2 construct": "Cyclin A2, mouse; cDNA obtained from NIH3T3 cells by RT-PCR; source: NIH3T3 or HEK 293 cells, transfected, in cell extracts; not shown: 3xFlag, C-terminal, kept", "T2 sequence (P51943 whole entry L204A, the tested form may be a part)": "as the sequence (P51943 whole entry E285A, the tested form may be a part) above, with L204A, A285E counted along it"}, "[3]": {"biological_target": "T3, Cyclin A2 M200A, C-terminally fused to 3 Flag tags (mouse, UniProt P51943 1-422, M200A)", "T3 construct": "Cyclin A2, mouse; cDNA obtained from NIH3T3 cells by RT-PCR; source: NIH3T3 or HEK 293 cells, transfected, in cell extracts; not shown: 3xFlag, C-terminal, kept", "T3 sequence (P51943 whole entry M200A, the tested form may be a part)": "as the sequence (P51943 whole entry E285A, the tested form may be a part) above, with M200A, A285E counted along it"}, "[4]": {"biological_target": "T4, Cyclin A2 W207A, C-terminally fused to 3 Flag tags (mouse, UniProt P51943 1-422, W207A)", "T4 construct": "Cyclin A2, mouse; cDNA obtained from NIH3T3 cells by RT-PCR; source: NIH3T3 or HEK 293 cells, transfected, in cell extracts; not shown: 3xFlag, C-terminal, kept", "T4 sequence (P51943 whole entry W207A, the tested form may be a part)": "as the sequence (P51943 whole entry E285A, the tested form may be a part) above, with W207A, A285E counted along it"}, "[5]": {"biological_target": "T5, Cyclin A2 Triple (M200A, L204A, W207A), C-terminally fused to 3 Flag tags (mouse, UniProt P51943 1-422, M200A | L204A | W207A)", "T5 construct": "Cyclin A2, mouse; cDNA obtained from NIH3T3 cells by RT-PCR; also called Triple mutant; source: NIH3T3 or HEK 293 cells, transfected, in cell extracts; not shown: 3xFlag, C-terminal, kept", "T5 sequence (P51943 whole entry M200A/L204A/W207A, the tested form may be a part)": "as the sequence (P51943 whole entry E285A, the tested form may be a part) above, with M200A, L204A, W207A, A285E counted along it"}, "[6]": {"biological_target": "T6, Cyclin A2 E210Q, C-terminally fused to 3 Flag tags (mouse, UniProt P51943 1-422, E210Q)", "T6 construct": "Cyclin A2, mouse; cDNA obtained from NIH3T3 cells by RT-PCR; source: NIH3T3 cells, transfected, in cell extracts; not shown: 3xFlag, C-terminal, kept", "T6 sequence (P51943 whole entry E210Q, the tested form may be a part)": "as the sequence (P51943 whole entry E285A, the tested form may be a part) above, with E210Q, A285E counted along it"}, "[7]": {"biological_target": "T7, Cyclin A2 D171A, C-terminally fused to 3 Flag tags (mouse, UniProt P51943 1-422, D171A)", "T7 construct": "Cyclin A2, mouse; cDNA obtained from NIH3T3 cells by RT-PCR; source: NIH3T3 or HEK 293 cells, transfected, in cell extracts; not shown: 3xFlag, C-terminal, kept", "T7 sequence (P51943 whole entry D171A, the tested form may be a part)": "as the sequence (P51943 whole entry E285A, the tested form may be a part) above, with D171A, A285E counted along it"}, "[8]": {"biological_target": "T8, Cyclin A2 K256A, C-terminally fused to 3 Flag tags (mouse, UniProt P51943 1-422, K256A)", "T8 construct": "Cyclin A2, mouse; cDNA obtained from NIH3T3 cells by RT-PCR; source: NIH3T3 cells, transfected, in cell extracts; not shown: 3xFlag, C-terminal, kept", "T8 sequence (P51943 whole entry K256A, the tested form may be a part)": "as the sequence (P51943 whole entry E285A, the tested form may be a part) above, with K256A, A285E counted along it"}, "[9]": {"biological_target": "T9, Cyclin A2 WT, C-terminally fused to 3 Flag tags (mouse, UniProt P51943 1-422)", "T9 construct": "Cyclin A2, mouse; cDNA obtained from NIH3T3 cells by RT-PCR; Same construct transfected into mouse NIH3T3 (assay a1) and human HEK 293 (assay a2); also called WT Cyclin A2 allele; Flag tagged WT Cyclin A2; source: NIH3T3 or HEK 293 cells, transfected, in cell extracts; not shown: 3xFlag, C-terminal, kept"}, "[10]": {"biological_target": "T10, Cyclin A2 Double (W207L, E210Q), C-terminally fused to 3 Flag tags (mouse, UniProt P51943 1-422, W207L | E210Q)", "T10 construct": "Cyclin A2, mouse; cDNA obtained from NIH3T3 cells by RT-PCR; also called Double mutant; source: NIH3T3 cells, transfected, in cell extracts; not shown: 3xFlag, C-terminal, kept", "T10 sequence (P51943 whole entry W207L/E210Q, the tested form may be a part)": "as the sequence (P51943 whole entry E285A, the tested form may be a part) above, with W207L, E210Q, A285E counted along it"}, "[11]": {"biological_target": "T11, Cyclin A2 L282R, C-terminally fused to 3 Flag tags (mouse, UniProt P51943 1-422, L282R)", "T11 construct": "Cyclin A2, mouse; cDNA obtained from NIH3T3 cells by RT-PCR; source: NIH3T3 cells, transfected, in cell extracts; not shown: 3xFlag, C-terminal, kept", "T11 sequence (P51943 whole entry L282R, the tested form may be a part)": "as the sequence (P51943 whole entry E285A, the tested form may be a part) above, with L282R, A285E counted along it"}, "[12]": {"biological_target": "T12, Cyclin A2 E180A, C-terminally fused to 3 Flag tags (mouse, UniProt P51943 1-422, E180A)", "T12 construct": "Cyclin A2, mouse; cDNA obtained from NIH3T3 cells by RT-PCR; source: NIH3T3 cells, transfected, in cell extracts; not shown: 3xFlag, C-terminal, kept", "T12 sequence (P51943 whole entry E180A, the tested form may be a part)": "as the sequence (P51943 whole entry E285A, the tested form may be a part) above, with E180A, A285E counted along it"}}}
{"binder": "CDK1 (endogenous, NIH3T3) (enzyme, CDK1, endogenous protein of mouse NIH3T3 cells, detected by Western blot; source: endogenous, NIH3T3 cell extract) not shown", "values": [{"measurement": "percent co-precipitated relative to WT", "setting": "[1]", "result": 4.7, "unit": "%"}, {"measurement": "percent co-precipitated relative to WT", "setting": "[2]", "result": 57.2, "unit": "%"}, {"measurement": "percent co-precipitated relative to WT", "setting": "[3]", "result": 72.8, "unit": "%"}, {"measurement": "percent co-precipitated relative to WT", "setting": "[4]", "result": 15.3, "unit": "%"}, {"measurement": "percent co-precipitated relative to WT", "setting": "[5]", "result": 0.4, "unit": "%"}, {"measurement": "percent co-precipitated relative to WT", "setting": "[6]", "result": 45.3, "unit": "%"}, {"measurement": "percent co-precipitated relative to WT", "setting": "[7]", "result": 100, "unit": "%"}, {"measurement": "percent co-precipitated relative to WT", "setting": "[8]", "result": 3.8, "unit": "%"}, {"measurement": "percent co-precipitated relative to WT", "setting": "[9]", "result": 100, "unit": "%"}, {"measurement": "percent co-precipitated relative to WT", "setting": "[10]", "result": 9.2, "unit": "%"}, {"measurement": "percent co-precipitated relative to WT", "setting": "[11]", "result": 19.8, "unit": "%"}]}
{"binder": "p107 (endogenous, NIH3T3) (natural protein, mouse (endogenous in NIH3T3), UniProt Q64701 1-1063, looked up, p107, endogenous protein of mouse NIH3T3 cells, detected by Western blot; source: endogenous, NIH3T3 cell extract) MFEDEPHAEGAAAVAAAREALQALCQELNLDEGSAAEALDDFTAIRGNYSLEGEVIHWLACSLYVACRKSIIPTVGKGVMEGNCVSLTRILRSAKLSLIQFFSKMKKWMDMSNLPQEFRERIERLERNFEVSTVIFKKFEPIFLDIFQNPYEEPPKLPRSRKQRRIPCSVKDLFNFCWTLFVYTKGNFRMIGDDLVNSYHLLLCCLDLIFANAIMCPNRRDLLNPSFKGLPSDFHAPDFKAAEEPPCIIAVLCDLHDGLLVEAKGIKEHYFKPYISKLFDKKILKGECLLDLSSFTDNSKAVNKEYEEYVLTVGDFDERIFLGADAEEEIGTPRKFTADTPFGKLTSQASVECNLQQHFEKKRSFAPSTPLTGRRYLQEKEAVTTPVASATQSVSRLQSIVAGLKSAPSEQLLNIFESCMRNPMGNIIKIVKGIGETFCQHYTQSTDKQPGSHIDFAVNRLKLAEILYYKILETIMVQETRRLHGMDMSVLLEQDIFHKSLMACCLEIVLFAYSSPRTFPWIIEVLDLQPFYFYKVIEVVIRSEEGLSRDMVKHLNSIEEQILESLAWTNNSALWEALHASANRVPSCEEVIFPNNFEIGNGGNVQGHLPMMPMSPIIHPRVKEVRTDSGSLRQDMQPLSPISVHERYSSPAAGSAKRRLFGDDPPKDTLMDKIMAEGTKLKIAPSSVTAESLSISPGQALLTMATTTVTGTTGRKVTVPLHGIANDAGEITLVPISMNPTQESTAESPVSLTAQSLIGTSPKQTHLTKAQDAHLTGVSKPKRTGSLALFYRKVYHLASVRLRDLCLKLDVSNELRRKIWTCFEFTLVHCPDLMKDRHLDQLLLCAFYIMAKVTKEERTFQEIMKSYRNQPQANSHVYRSVLLKSIPGGVVVYNGDCEMTDGDIEDATKTPNCSSEPVKEERGDLIKFYNTVYVGRVKSFALKYDLSNQDHIMDAPPLSPFPHIKQQPGSPRRISQQHSLYVSPHKNGAGLTPRSALLYKFNGSPSKSLKDINNMIRQGEQKTKKRVIAISGDADSPAKRLCQENDDVLLKRLQDVVSERANH", "values": [{"measurement": "percent co-precipitated relative to WT", "setting": "[1]", "result": 8.6, "unit": "%"}, {"measurement": "percent co-precipitated relative to WT", "setting": "[2]", "result": 65.6, "unit": "%"}, {"measurement": "percent co-precipitated relative to WT", "setting": "[3]", "result": 79.2, "unit": "%"}, {"measurement": "percent co-precipitated relative to WT", "setting": "[6]", "result": 70, "unit": "%"}, {"measurement": "percent co-precipitated relative to WT", "setting": "[7]", "result": 100, "unit": "%"}, {"measurement": "percent co-precipitated relative to WT", "setting": "[8]", "result": 17, "unit": "%"}, {"measurement": "percent co-precipitated relative to WT", "setting": "[9]", "result": 100, "unit": "%"}, {"measurement": "percent co-precipitated relative to WT", "setting": "[11]", "result": 58.6, "unit": "%"}, {"measurement": "percent co-precipitated relative to WT", "setting": "[12]", "result": 19.6, "unit": "%"}]}
{"binder": "p21 (endogenous, NIH3T3) (natural protein, mouse (endogenous in NIH3T3), UniProt P39689 1-159, looked up, p21, endogenous protein of mouse NIH3T3 cells, detected by Western blot; source: endogenous, NIH3T3 cell extract) MSNPGDVRPVPHRSKVCRCLFGPVDSEQLRRDCDALMAGCLQEARERWNFDFVTETPLEGNFVWERVRSLGLPKVYLSPGSRSRDDLGGDKRPSTSSALLQGPAPEDHVALSLSCTLVSERPEDSPGGPGTSQGRKRRQTSLTDFYHSKRRLVFCKRKP", "values": [{"measurement": "percent co-precipitated relative to WT", "setting": "[1]", "result": 78.2, "unit": "%"}, {"measurement": "percent co-precipitated relative to WT", "setting": "[2]", "result": 100, "unit": "%"}, {"measurement": "percent co-precipitated relative to WT", "setting": "[3]", "result": 100, "unit": "%"}, {"measurement": "percent co-precipitated relative to WT", "setting": "[4]", "result": 79.2, "unit": "%"}, {"measurement": "percent co-precipitated relative to WT", "setting": "[6]", "result": 60.2, "unit": "%"}, {"measurement": "percent co-precipitated relative to WT", "setting": "[7]", "result": 100, "unit": "%"}, {"measurement": "percent co-precipitated relative to WT", "setting": "[8]", "result": 41.9, "unit": "%"}, {"measurement": "percent co-precipitated relative to WT", "setting": "[9]", "result": 100, "unit": "%"}, {"measurement": "percent co-precipitated relative to WT", "setting": "[10]", "result": 8.2, "unit": "%"}, {"measurement": "percent co-precipitated relative to WT", "setting": "[11]", "result": 65.7, "unit": "%"}, {"measurement": "percent co-precipitated relative to WT", "setting": "[12]", "result": 11.7, "unit": "%"}]}
{"binder": "p27 (endogenous, NIH3T3) (natural protein, mouse (endogenous in NIH3T3), UniProt P46414 1-197, looked up, p27, endogenous protein of mouse NIH3T3 cells, detected by Western blot; source: endogenous, NIH3T3 cell extract) MSNVRVSNGSPSLERMDARQAEHPKPSACRNLFGPVNHEELTRDLEKHCRDMEEASQRKWNFDFQNHKPLEGRYEWQEVERGSLPEFYYRPPRPPKSACKVLAQESQDVSGSRQAVPLIGSQANSEDRHLVDQMPDSSDNPAGLAEQCPGMRKRPAAEDSSSQNKRANRTEENVSDGSPNAGTVEQTPKKPGLRRQT", "values": [{"measurement": "percent co-precipitated relative to WT", "setting": "[1]", "result": 36.7, "unit": "%"}, {"measurement": "percent co-precipitated relative to WT", "setting": "[2]", "result": 15.2, "unit": "%"}, {"measurement": "percent co-precipitated relative to WT", "setting": "[3]", "result": 69.2, "unit": "%"}, {"measurement": "percent co-precipitated relative to WT", "setting": "[6]", "result": 95.7, "unit": "%"}, {"measurement": "percent co-precipitated relative to WT", "setting": "[7]", "result": 100, "unit": "%"}, {"measurement": "percent co-precipitated relative to WT", "setting": "[8]", "result": 19.3, "unit": "%"}, {"measurement": "percent co-precipitated relative to WT", "setting": "[9]", "result": 100, "unit": "%"}, {"measurement": "percent co-precipitated relative to WT", "setting": "[11]", "result": 44.5, "unit": "%"}]}
